Assay results taken from US20250180556A1 (ECOLE POLYTECHNIQUE FEDERALE DE LAUSANNE EPFL, published 2025).
Blank lines part the entries; values can stand above or below the binder they belong to.

Columns and labels:
[1] = target: T1, glutathione S-transferase (GST)-HmtA chimeric construct, biotinylated in vivo (Methanobrevibacter smithii, biotinylated in vivo by bacteria at the N-terminus (GST) end); assay: ELISA, biotinylated GST-HmtA immobilised on coated plates
T1 construct: The construct was immobilised on coated polystyrene plates; also called GCJ construct; HmtA containing construct; not shown: glutathione S-transferase (GST)
Experimental: (§1) The binding properties of all antibodies were tested by ELISA. A glutathione S-transferase (GST)-HmtA chimeric construct was prepared and further biotinylated in vivo by bacteria at the N-terminus (GST) end of the HmtA construct (GCJ construct). The construct was immobilized in coated polystyrene plates. A control chimeric GST construct (GCH) lacking HmtA was prepared, biotinylated and immobilized analogously.

[2] = target: T1, glutathione S-transferase (GST)-HmtA …; assay: ELISA (figure legend)
Experimental: as §1

T1 sequence (chain, as listed by the source mutant): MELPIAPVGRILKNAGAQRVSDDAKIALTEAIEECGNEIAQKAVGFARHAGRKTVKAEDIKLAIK

binding result [1]: binds
B1: scFv of monoclonal antibody mAb1 (N-VH-linker-VL-C) (scFv)
scFv: EVQLVQSGAEVKKPGESLKISCKGSGYSFTSYWIGWVRQMPGKGLEWMGIIYPGDSDTRYSPSFQGQVTISADKSISTAYLQWSSLKASDTAMYYCARAGFRGYCSGGSCYRLPYWGQGTLVTVSSGGGGSGGGGSGGGGSTQSVLTQPPSVSAAPGQKVTISCSGSSSNIGNNYVSWYQQLPGTAPKLLIYDNNKRPSGIPDRFSGSKSGTSATLGITGLQTGDEADYYCGTWDVLAARSVFGGGTKLTVLG
notes: Selected from the Tomlinson I,J human scFv library (pIT2 vector); also called scFv based on mAb1

binding result [1]: binds
B2: scFv of monoclonal antibody mAb2 (N-VH-linker-VL-C) (scFv)
scFv: EVQLVQSGAEVKKPGESLKISCKGSGYSFTSYWIGWVRQMPGKGLEWMGIIYPGDSDTRYSPSFQGQVTISADKSISTAYLQWSSLKASDTAMYYCARLATGPHGIASAGRRYLDYWGQGTLVTVSSGGGGSGGGGSGGGGSTQSVLTQPPSVSAAPGQKVTISCSGSSSNIGNNYVSWYQQLPGTAPKLLIYDNNKRPSGIPDRFSGSKSGTSATLGITGLQTGDEADYYCGTWDSRGFGVFGGGTKLTVLG
notes: Selected from the Tomlinson I,J human scFv library (pIT2 vector); also called scFv based on mAb2

binding result [2]: binds
B3: scFv of monoclonal antibody mAb5 (N-VH-linker-VL-C) (scFv)
scFv: EVQLVQSGAEVKKPGESLKISCKGSGYSFTSYWIGWVRQMPGKGLEWMGIIYPGDSDTRYSPSFQGQVTISADKSISTAYLQWSSLKASDTAMYYCARAKVGQRYSSGRYFFDYWGQGTLVTVSSGGGGSGGGGSGGGGSTEIVLTQSPATLSLSPGERATLSCRASQSVSSYLAWYQQKPGQAPRLLIYDASNRATGIPARFSGSGSGTDFTLTISSLEPEDFAVYYCQQGAKDNPMTFGQGTKVEIKR
notes: Selected from the Tomlinson I,J human scFv library (pIT2 vector); also called scFv based on mAb5
